assay: soluble fraction after stress (log2 fold change); higher = more stays soluble; pooled small domains, quantitative proteomics; conditions: stress: pH 4
Procedure, shortened: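 Custom libraries of small protein domains were pooled and measured with high-throughput quantitative proteomics after pH 4 stress. The read-out is the fold change in the amount of each domain that stays soluble after the acid stress, taken as a measure of aggregation propensity. Fold changes are on a log2 scale, and higher values mean more of the domain stayed soluble.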

Compared with “HMRDSYEVEGRIASVSPAAGTFVVAGVTVDYTGARFVGGTVAQLAPGVKVEVEGRRLANGTLQAREIEFD”, “HMRDSYTFEDIEKLKDSYLQDSEKALEKLISIYEDTNQSLAIRTAALDIITDSQDPTFKLALEKIIS” is lower in “soluble fraction (log2)” value: -0.12 for the first, -0.751 for the second.

Going from “HMRDTAKTLLAMEVVGENNKKNLQAFGIQKGDQNYQTAVVVRLMQKALMEGDTSAIRLIGELTGD” to “HMRDTLSKQLLTEEMVLQFIREMREHDPGIGGEKLHAMYLGRFGRDYEYMVGRDKMEMIIAENNLNVR”, the “soluble fraction (log2)” value falls from -0.44 to -1.05.

First: HMRDYDFGNLLYKLRIESGYTQKDIADMLGVTDKAVSKWENGIAKPTTNNIKLLSTIYNVSVEELLNG
Second: HMRDYKTALQEWVQRTPGQPIAYRLVDELGPDHARVFVMEVTVGGQSAGQGRGRTKKEAEQLAARAALEKL
The “soluble fraction (log2)” value of the first is lower: -0.754 for the first, -0.0915 for the second.

Compared with “HMREEIESVYKTLAVTEIPYIARGNSARLGSGIQTVYDFYRMEGMQVSKILGRNGSVLWLELHG”, “HMREEMYGLIGFITTSEVTDTFGQMEIKLENEPEMRINVRTNPGESLARGDAAKIISFNNSNGTFLVELTK” is lower in “soluble fraction (log2)” value: -0.159 for the first, -0.564 for the second.

Compared with “HMREFQVMKQELQEMVHQRLDMSTELSDEAIGDVIDEVIMEKSRNMYISSVTKLTLRQELFNAIR”, “HMREGRERRLSQLLSYLRTHHILTRSEYVKLTGLSPTAASSELKTFVTAGHIVRKGIASHSTYRLPH” is higher in “soluble fraction (log2)” value: -2.14 for the first, 0.00826 for the second.

Compared with “HMREKLKEYVHLLFAGTVGKEDMEQEILQNTLDRFDDWVARGFSEEDAYRKAVSGIGDIDALLG”, “HMREPDPELTASIKSMAESNDQSERLVALAQLSEQRAVDPEVADQILLIALLDEDPIIRGQAVYA” is higher in “soluble fraction (log2)” value: -2.07 for the first, 0.0401 for the second.

First: HMRERLPFGFAQSKKVVLLSTESDTPKVLSVNWPSLDLYAELKRVIGRAFLLEIVSEEEFQAQVSDAYQRD
Second: HMREVGVPNLRGLTAEEAQIVLSNAGLNLRTEPIRRVHETITVGRIAEQDPMPDLTIRSQRSVTTWLSSGP
The “soluble fraction (log2)” value of the first is lower: -1.48 for the first, -0.268 for the second.

“HMREVTVGSAVRLKKGAKTYSGGSLASFVYERNHQVTQLSGDRAVISFKGTVVAAVHKDDLIL” and “HMREVVLNRIGSVAVQRATTRTWEEWVVTLDAEGMRGKEHRDVVGHLLRAHELTSWWAQMVSVGYEQSRGQ” are within 0.2 log units of each other in “soluble fraction (log2)” value: -0.0626 for the first, -0.155 for the second.

Compared with “HMREYRITAEEGHPRIDVFLAGRPEIGLSRSRIQALIDEGQVTLNGAMPKARQAVNPGDVIVVRVPDPE”, “HMRFEWFDTLTDREKEIFGLIATGFDNQQIADRLQLAEQTVRNNISTIYSKLEVKDRFEIIRLANTI” is lower in “soluble fraction (log2)” value: -0.336 for the first, -1.29 for the second.

First: HMRFKPLAEILAAVQTRYAGRVLDVELDRDQAGRNVYEVKLLAADGSRREIHIDAVTGKEVSL
Second: HMRGAIKMAEEQMAGHKKIGSISGTAPTQGELEKKFAMAAAQMGARYYVITGLSNNNYAFGNADIY
The “soluble fraction (log2)” value of the first is higher: 0.178 for the first, -0.194 for the second.

Going from “HMRGDEDTGVWPTPMKRAYIDSLLKGYPTGVTMIVKPPGASHTTKWMILDGANRARALRDFMNDEFMI” to “HMRGFTDFEHIEKEYLATIEKLNWPDGVTLPDKLEGEDTGTSFQVGYGDTRASNLWEYSWMK”, the “soluble fraction (log2)” value falls from -0.155 to -1.15.

“HMRGIPEEVADVAIQWVARLDSNEISDADRAAFFAWLDASPINRWAYNDISESWAKLSILNEMGH” and “HMRGLFTVYMVGEKASRVGELDEEMVYESRIGDVFALGATSWRIEEITHDRVLVSPAYGQPGRLPFWH” are within 0.2 log units of each other in “soluble fraction (log2)” value: -1.8 for the first, -1.72 for the second.

Compared with “HMRGLGDLEPVDSLGKIRIDDGHMVLAFGRHKGRHLSEVQAEDPRYIHWLLSPKGIEDVEAREKVKVYLEG”, “HMRGLLSQREHDVLDLVARGFSYGEIARLRSISVSTVQTHIKNLYRKLAVSSRTEAVYEAKQMGI” is lower in “soluble fraction (log2)” value: -0.136 for the first, -0.755 for the second.

First: HMRGLVPEIVGTLEGEIRAGTLAVGQKLPTEAEIMARFDVSRTVVREALSRLQASDLVETRHGIGTFVSAR
Second: HMRGPDLSKDFHEYISSQWMFFGRNAYQIAEQINKDTQLMSKYGKTTPSGVHYHIKQIQQEMEN
The “soluble fraction (log2)” value of the first is higher: 0.163 for the first, -0.984 for the second.

Going from “HMRGPPQVLVDVELEDGRVGQIGVRNGDDATELAETFVRAFRLEQSFVGRLANVIQGKIRELLHSQ” to “HMRGSRIFSGDVSPLTLPANSPFFSGYTEFKPGDVYVERSATNIAMWEWKSQPGGYTWVKTADIA”, the “soluble fraction (log2)” value rises from -1.17 to 0.22.

“HMRGYGDRIRILRERAGITIEQLAERLGVAPYFIRRTELSEVYPTKPYIEALADVLNIDASYLARHI” and “HMRHYVLKENNGVIAIYKVNQENEAVFKENTQIQVQYLPEVDLINLKKGIYAIGEEKLNSILEDF” are within 0.2 log units of each other in “soluble fraction (log2)” value: -0.972 for the first, -0.892 for the second.

Going from “HMRIDSFEDARRRFEYDYLTRLLKLTQGSVTQAAKLAKRNRTEFYKLLQRHGIEAAHFKPTS” to “HMRIDVWLAENGFAPSRQKAQDLIAAGRVFQTDPSGRRQKVSKASAAVDPALSPKIEVIPDPE”, the “soluble fraction (log2)” value falls from no less than 0.43 to 0.068.

Going from “HMRILGIDPGYAITGYSIIDYVGNKFKLIDSGAVLTKAGVSFPLRLTKIYDDLSMIIDEYKPDA” to “HMRIPANIAEDIKKLQKKEHHLHHHLGRDPFDDELAKELEWDTEQVSEIRQMIKNPELLEELLEAEREEE”, the “soluble fraction (log2)” value falls from -0.42 to -1.2.

Compared with “HMRITEQRRTLAKLFADTPGYLSPKDVYDYMGRFYPGLSFDTVYRNLRLLDELGVLEQVVFEDGVKFK”, “HMRIWTISDLYKNVEDKKVSLAVFSEDNDSNKVNVLDINGEEHSVNLLKADLPTLVDLFRKNDVRFAVRSN” is higher in “soluble fraction (log2)” value: -0.677 for the first, 0.259 for the second.

Compared with “HMRIWTPEMIKEYIISSNGKEPLNSHYYSTNHPSIYAAAERIFGSWGNAINAAGLDYNAIRKYK”, “HMRIYFSPSEIGFYHESDKQAYLLAGTWPNDLLEISEKWFLYLLEGQQKGKVITVNDYDQPVLVD” is lower in “soluble fraction (log2)” value: -0.0687 for the first, -2.28 for the second.

“HMRIYTKDEYLAELSRYLHKLPQDDYESAMAYFREYFEEAGPENEAQAMRDLGTPKEAASEILQNLLH” and “HMRKDYTVLYSAVNAEEATEIVSKLQESGVAYQYKDNGDVLVDKKQVDKVRAQLAQEGYPKS” are within 0.2 log units of each other in “soluble fraction (log2)” value: -0.162 for the first, -0.204 for the second.

“HMRKIEDVLRLHAQGMSTRRIALATGVGKTTVIEYLRRAAVAGLSWPLPEGLDEEALERRVFPPPP” and “HMRKIFPFNPNFITDQRGYFLGMSTSEIDRLHHFRAANKWIQSAQEFQVVTKVSNAWLSEFSPYFNFP” are within 0.2 log units of each other in “soluble fraction (log2)” value: 0.282 for the first, 0.298 for the second.

“HMRKKTYEIITDDLRRMIEAGLIRPGEKLGAIDQLAAKYRVGRSTVREALSHLKALGLVESRQGGGTYVTK” and “HMRKNVAGITPNVYGMGLKDAVYLLENAGYRVKVNGRGNVVRQSINSGTRIIKGQLIILDLD” are within 0.2 log units of each other in “soluble fraction (log2)” value: 0.109 for the first, 0.0848 for the second.

First: HMRKSNADALDGKTGIVKEEIKTGGYGYVGIDGDMWRSISESGEAIPAGTKVVVISHESIILTVKPA
Second: HMRKTLASTAYDSIKAGIVSGEINNNLLLSENTLAKILNMSRTPIREAIKRLEAESYLKSVDGVGLIVQE
The “soluble fraction (log2)” value of the first is higher: no less than 0.43 for the first, -0.314 for the second.

Going from “HMRKTLSQEAYEKIKQNLEDGVYQGYINGRQVARDLDIGFTPVREAFLQLQSEGLIRKEDNVGYFV” to “HMRKTYHVDAYQDDKWWVLQVQEMPNAISQVKSLDQADEWIREAINIVSNEPEDSFDVVIIPV”, the “soluble fraction (log2)” value falls from -0.183 to -1.54.

Going from “HMRKVTDTHELSSVVKSVIDQWEEKAAEYRAGKSGLLGFFVGEVMKKTGGAADPEAAKSLLQDRLD” to “HMRKYEAVPASVVPAQIQEYVAKSNFPNQYIRKIERNKYTWEIELSNGLEIKFDRQFNVIGFD”, the “soluble fraction (log2)” value rises from -0.285 to 0.338.

First: HMRLGQLQSVEEPKFIEVHSGKQGDIGEQTIVEYEIDAKYATGDATINLKLLFRDGLFEIYNFNFSSEALL
Second: HMRLNIRTKNNYSYYTIIKDYTNLNGKRTTTIFEKLGNQQQVEERFGKVNTIENIKKYIEELNNE
The “soluble fraction (log2)” value of the first is lower: -0.259 for the first, 0.22 for the second.

Going from “HMRLPAISYSFARKHGVVLRLDGDRPVASLREGADPAILIEVKRHLDGAMGVEKVSEAAFDQLLSTTYA” to “HMRLPNGYGSITKLSGKRRKPFMVRITTGYDNEGKQLMSVLGYYATRTEALAVLAEYNKNPYNPI”, the “soluble fraction (log2)” value rises from -0.436 to 0.109.

Compared with “HMRLPNHYGSVVKLSGKRRRPFMVRGGVYGYDDRGYPQYVIVGYTETREQGLTMLAEYNRNP”, “HMRLPVELTDREVEVLRLLAQAMSNGEIARELYIGEATVKTHVSNVLQKLGARDRVAAVVWAHRYGL” is lower in “soluble fraction (log2)” value: -0.319 for the first, -1.16 for the second.

Going from “HMRLSAADLQSYLKGMDYPASRQDLIAHARGHNAPEEAVATLEQFSDRTYRSAADVSVEFGRE” to “HMRLSPTMVETLIAMLNRNAYPAYENNSRTFASLEERGLIQPDIEGNWSLTDTGHQTALKLLK”, the “soluble fraction (log2)” value falls from 0.309 to 0.0279.

Compared with “HMRLSVRQRMSDVLGALKTQAFVEFTQLFRPQEGRMGVTVTFSAILELLREGLIEIVQSEPFAPIHVRAGA”, “HMRMDKHLWLSLLRLINEGSAEELQTKKDELLQSLERLRITRGPVRGDVLRVVRLIDEELVSRLHLDQR” is lower in “soluble fraction (log2)” value: 0.22 for the first, -0.697 for the second.

First: HMRMTKPLPFDLAAFRNEFGFTKSIIMQEVGVSRHIYDNVERTNATPPEFYDDFVSFFQRHGQ
Second: HMRMTPRQALDDLIREREETYAAVSRLLGRNTAYIQQYIKRGTPARLDQSDIAQLALHFDVPAKLLGGKE
The “soluble fraction (log2)” value of the first is lower: -0.203 for the first, no less than 0.43 for the second.

Compared with “HMRMTTEQLMSFLKQHFPQVADNFTVRISDEGRLSVEMPVNDKHLRPGGTVSGPSMFALADVAFYLAILQ”, “HMRNERDRQLYAAMEKLKAEYREALYLVYFENMSYRDAAAVMAQTEKQISNLVYRGKQSLKTILEQEGF” is lower in “soluble fraction (log2)” value: -0.349 for the first, -0.867 for the second.

Going from “HMRNGGHTVYRNNGSLFIVVRDGDKLESVASEFRVSPKKLIKYNDLDIHSNVKTGDMIYIRPKA” to “HMRNLYEILGVSKDAPQGEIKSAYRKLAKTYHPDLNPNNEKAAELFKEINQAYEVLSDETKRRHYDQFGEA”, the “soluble fraction (log2)” value rises from -0.124 to no less than 0.43.

First: HMRNMTDYLTIVRAVYGGLSQRQAATTYHVSRNTVSLLIRHAKNQGWLTVEDLSRADAAAFSPA
Second: HMRNMVSVLDHIEGIGPKRRQLLYEHYGELEKIKEASVEEMAGLDGMNRPAAEAVYNFFLAQRNL
The “soluble fraction (log2)” value of the first is higher: -0.0738 for the first, -0.308 for the second.

Going from “HMRNSSLQTDLELRAYVIDGLNHFWTPEEIAGRWSLAHPDRPVSFATIYRHIKRKLLPGIEPKTHLRRRGK” to “HMRPEARAASLSDEERKIFDYLAANGEKTIDNISVAVKMSAADILKNITLMSAKGLVYMPSAGRYGVKGN”, the “soluble fraction (log2)” value falls from no less than 0.43 to 0.0795.

“HMRPNREKDMADLEKLAPFLLQMLTNYAQMTGDEKPLNAFITRFGYAAQIRDIQDFFMGPWHPA” and “HMRPQIAIDAIQALSLIMRTENKEDPTYLESRRVVSDAVAKRLSLNPTDLNRAWSRAPRDHQIAVLSALTQ” are within 0.2 log units of each other in “soluble fraction (log2)” value: -0.24 for the first, -0.184 for the second.

“HMRPRGTRLPTGWTPSSDALDWTKAEKPGLDPLQTLEKFRDYWTAQPGQKGVKTDWDATWRNWVRREIP” and “HMRPSGTAGILRYLSSGAIRGIGATTAQRLVSEFGEKTLDVMENEPERVAMLKGISKSKAEDFSLQLKQS” are within 0.2 log units of each other in “soluble fraction (log2)” value: 0.0989 for the first, 0.0932 for the second.

— the domain aggregation screens of Martell et al. (2025)
